Assay [1] has as its target monoclonal antibody AUII5-6-10a. As to the kind of experiment: competitive EIA: unlabelled peptide displaces biotinylated goby urotensin II from captured antibody.
The target in assay [2] is monoclonal antibody AUII103-5-41a. The assay is described as above.
Assay [3] shares this target. As to the kind of experiment: competitive EIA; ratio of the antigen levels giving (B/B0)=0.5 (0.68 nM / 17.4 nM).
The target in assay [4] is these two hybridoma culture supernatants. As to the kind of experiment: competitive EIA against biotinylated goby urotensin II.

The IC50 is the concentration needed to halve the response being measured. Higher therefore signals a need for much substance.

B1: human urotensin II (peptide)
peptide: ETPDCFWKYCV
Consider B1, for which the results for the IC50 in assay [1], in assay [2] and in assay [4] were 1.2 nM, 0.68 nM and 0.5 to 2 nM, respectively. Also, the ratio of reactivity with human urotensin II to reactivity with porcine urotensin II-1 in assay [3] was found to be 0.04 time. The human urotensin II level at (B/B0)=0.9 in assay [4] came out at 0.2 nM.

B2: porcine urotensin II-1 (peptide)
peptide: GPTSECFWKYCV
For the molecule B2, in assay [2], the IC50 was 17.4 nM.

(Values after US20060051344A1.)
